Test results as given in the supplement of paper PMC10724198.
± gives the standard deviation of the averaged measurements.

Tests used:
[1] = system: Saccharomyces cerevisiae; experiment: protein stability index of tFT-peptide fusion (C-terminal peptide) (PSI (0-1 scale)); higher = more stable (slower turnover); details: genetic background: wild type; temperature: 30 C
[2] = system: Saccharomyces cerevisiae; experiment: as above
Protocol: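 MPS profiling in S. cerevisiae of the tFT-X12 degron library: putative degron peptides plus stable controls, 12 aa, fused to the C-terminus of a sfGFP-mCherry timer. Cells are FACS-sorted into 8 mCherry/sfGFP bins and deep-sequenced. PSI runs from 0 (unstable) to 1 (stable). Backgrounds are wild type, das1Δ and doa10Δ at 30 °C, and wild type, das1Δ, cdc34-1 and cdc53-1 at 37 °C; 2-3 technical replicates each.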

[3] = genetic background: cdc34-1, temperature: 37 C
[4] = genetic background: cdc53-1, temperature: 37 C
[5] = genetic background: das1 deletion, temperature: 30 C
[6] = genetic background: das1 deletion, temperature: 37 C
[7] = genetic background: doa10 deletion, temperature: 30 C
[8] = genetic background: wild type, temperature: 30 C
[9] = genetic background: wild type, temperature: 37 C
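Also: PSI is a weighted mean of sequencing reads over stability bins, variants kept only with over 10 reads, mCherry proximal and sfGFP distal, peptide attached via GGGS linker.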

Row | Sequence | protein stability index [1] | protein stability index [2, 3] | protein stability index [2, 4] | protein stability index [2, 5] | protein stability index [2, 6] | protein stability index [2, 7] | protein stability index [2, 8] | protein stability index [2, 9]
1 | RGGGGGTWVKMG | 0.258 ± 0.055 | 0.592 ± 0.011 | 0.733 ± 0.0075 | 0.653 ± 0.029 | 0.758 ± 0.012 | 0.118 ± 0.025 | 0.135 ± 0.02 | 0.217 ± 0.016
2 | RLVWGGLEMFVC | 0.235 ± 0.043 | 0.511 ± 0.024 | 0.627 ± 0.013 | 0.496 ± 0.026 | 0.654 ± 0.0094 | 0.109 ± 0.019 | 0.131 ± 0.0028 | 0.21 ± 0.0073
3 | FFVACCSFVFLL | 0.335 ± 0.066 | 0.369 ± 0.024 | 0.436 ± 0.03 | 0.35 ± 0.022 | 0.478 ± 0.0052 | 0.197 ± 0.007 | 0.203 ± 0.022 | 0.316 ± 0.019
4 | FILIFLGILSCC | 0.378 ± 0.04 | 0.409 ± 0.0092 | 0.453 ± 0.058 | 0.356 ± 0.026 | 0.463 ± 0.014 | 0.312 ± 0.0014 | 0.325 ± 0.025 | 0.4149 ± 0.0031
5 | LLIFGLLAVPSP | 0.4771 ± 0.0012 | 0.585 ± 0.0093 | 0.587 ± 0.023 | 0.448 ± 0.028 | 0.569 ± 0.0093 | 0.443 ± 0.031 | 0.457 ± 0.013 | 0.542 ± 0.042
6 | HLGAAVYVFSVL | 0.477 ± 0.006 | 0.664 ± 0.086 | 0.707 ± 0.019 | 0.551 ± 0.0072 | 0.705 ± 0.016 | 0.399 ± 0.071 | 0.424 ± 0.0089 | 0.64 ± 0.03
7 | AFVSVHRLRLAS | 0.4053 ± 0.0023 | 0.642 ± 0.016 | 0.724 ± 0.014 | 0.605 ± 0.017 | 0.734 ± 0.01 | 0.174 ± 0.0083 | 0.183 ± 0.037 | 0.374 ± 0.018
8 | WPRLSHIASFLA | 0.459 ± 0.025 | 0.675 ± 0.039 | 0.724 ± 0.038 | 0.682 ± 0.021 | 0.729 ± 0.01 | 0.26889 ± 7.6e-05 | 0.326 ± 0.021 | 0.509 ± 0.0095
9 | GLVAGVYVGSGL | 0.701 ± 0.02 | 0.7099 ± 0.0059 | 0.759 ± 0.011 | 0.629 ± 0.036 | 0.741 ± 0.0076 | 0.648 ± 0.031 | 0.616 ± 0.013 | 0.721 ± 0.01
10 | LVLVLAVFGCHD | 0.42 ± 0.061 | 0.397 ± 0.022 | 0.543 ± 0.079 | 0.305 ± 0.03 | 0.563 ± 0.02 | 0.284 ± 0.014 | 0.319 ± 0.036 | 0.477 ± 0.024
11 | DHSIYYGVAKVF | 0.163 ± 0.055 | 0.484 ± 0.017 | 0.652 ± 0.012 | 0.5745 ± 0.0018 | 0.694 ± 0.018 | 0.0729 ± 0.022 | 0.0841 ± 0.024 | 0.09554 ± 0.00036
12 | WALPRILFLRLT | 0.169 ± 0.028 | 0.118 ± 0.074 | 0.157 ± 0.016 | 0.359 ± 0.043 | 0.415 ± 0.0039 | 0.103 ± 0.00013 | 0.0657 ± 0.0088 | 0.0911 ± 0.021
13 | FARYLRSMYILF | 0.409 ± 0.029 | 0.546 ± 0.026 | 0.54989 ± 0.0003 | 0.5426 ± 0.0032 | 0.6721 ± 0.0049 | 0.369 ± 0.014 | 0.343 ± 0.019 | 0.462 ± 0.0051
14 | AVYEGLLIRCLI | 0.337 ± 0.011 | 0.4982 ± 0.0037 | 0.5271 ± 0.0033 | 0.392 ± 0.033 | 0.5549 ± 0.0045 | 0.195 ± 0.013 | 0.251 ± 0.021 | 0.392 ± 0.0068
15 | FFFLLPRLFRCV | 0.45 ± 0.017 | 0.791 ± 0.053 | 0.835 ± 0.012 | 0.707 ± 0.03 | 0.773 ± 0.011 | 0.445 ± 0.018 | 0.449 ± 0.012 | 0.5611 ± 0.0017
16 | FLGPYTPGMYLA | 0.359 ± 0.037 | 0.656 ± 0.031 | 0.7393 ± 0.0022 | 0.658 ± 0.015 | 0.7435 ± 0.0044 | 0.208 ± 0.011 | 0.258 ± 0.019 | 0.482 ± 0.0086
17 | HNLYCKILQLCV | 0.446 ± 0.0057 | 0.419 ± 0.013 | 0.49 ± 0.12 | 0.304 ± 0.049 | 0.497 ± 0.04 | 0.242 ± 0.017 | 0.294 ± 0.025 | 0.449 ± 0.03
18 | SLRCILISTRVK | 0.437 ± 0.087 | 0.541 ± 0.02 | 0.601 ± 0.054 | 0.331 ± 0.046 | 0.563 ± 0.0091 | 0.317 ± 0.043 | 0.348 ± 0.021 | 0.531 ± 0.018
19 | VMFWRGVWLSFC | 0.268 ± 0.03 | 0.313 ± 0.036 | 0.361 ± 0.049 | 0.45 ± 0.019 | 0.572 ± 0.03 | 0.23 ± 0.0033 | 0.197 ± 0.016 | 0.335 ± 0.011
20 | NKEEHQQKQRIH | 0.461 ± 0.15 | 0.636 ± 0.04 | 0.711 ± 0.02 | 0.663 ± 0.02 | 0.719 ± 0.031 | 0.619 ± 0.057 | 0.646 ± 0.049 | 0.698 ± 0.00079

Row | Sequence | protein stability index [1] | protein stability index [2, 3] | protein stability index [2, 4] | protein stability index [2, 5] | protein stability index [2, 6] | protein stability index [2, 7] | protein stability index [2, 8] | protein stability index [2, 9]
21 | DYIFVYAVMFMR | 0.265 ± 0.045 | 0.14 ± 0.046 | 0.292 ± 0.046 | 0.152 ± 0.026 | 0.319 ± 0.02 | 0.116 ± 0.0035 | 0.118 ± 0.031 | 0.308 ± 0.02
22 | RSWMRHVLRVAS | 0.194 ± 0.004 | 0.543 ± 0.048 | 0.701 ± 0.0072 | 0.525 ± 0.026 | 0.719 ± 0.025 | 0.0958 ± 0.0031 | 0.104 ± 0.01 | 0.154 ± 0.013
23 | YTHRYFVRLFAV | 0.3123 ± 0.0026 | 0.518 ± 0.047 | 0.708 ± 0.0076 | 0.504 ± 0.019 | 0.6558 ± 0.0057 | 0.206 ± 0.0073 | 0.2 ± 0.014 | 0.405 ± 0.0098
24 | EVPVIGVLRSLL | 0.743 ± 0.043 | 0.9376 ± 0.009 | 0.918 ± 0.014 | 0.804 ± 0.018 | 0.8784 ± 0.0044 | 0.773 ± 0.027 | 0.78 ± 0.023 | 0.847 ± 0.017
25 | RVDEVVKKLRTL | 0.195 ± 0.043 | 0.62 ± 0.027 | 0.665 ± 0.047 | 0.667 ± 0.012 | 0.707 ± 0.0091 | 0.0971 ± 0.035 | 0.107 ± 0.028 | 0.17 ± 0.025
26 | GARCFGFFCFLV | 0.207 ± 0.011 | 0.4284 ± 0.0039 | 0.507 ± 0.027 | 0.447 ± 0.032 | 0.582 ± 0.011 | 0.127 ± 0.0078 | 0.115 ± 0.017 | 0.169 ± 0.0064
27 | LPPSVLPLPPSH | 0.729 ± 0.021 | 0.647 ± 0.053 | 0.72 ± 0.013 | 0.658 ± 0.015 | 0.73 ± 0.024 | 0.6756 ± 0.0016 | 0.679 ± 0.033 | 0.752 ± 0.053
28 | PRGFVRVDLLIF | 0.383 ± 0.064 | 0.302 ± 0.021 | 0.481 ± 0.07 | 0.273 ± 0.027 | 0.442 ± 0.017 | 0.191 ± 0.0062 | 0.208 ± 0.031 | 0.37 ± 0.022
29 | GFDVFWLWVVVA | 0.125 ± 0.019 | 0.0676 ± 0.024 | 0.208 ± 0.017 | 0.192 ± 0.032 | 0.307 ± 0.022 | 0.0812 ± 0.011 | 0.103 ± 0.027 | 0.0966 ± 0.015
30 | CLVLCLSIPSPL | 0.55 ± 0.08 | 0.607 ± 0.027 | 0.6246 ± 0.00068 | 0.497 ± 0.03 | 0.6133 ± 0.0046 | 0.501 ± 0.018 | 0.5 ± 0.015 | 0.606 ± 0.012
31 | FVVRVVCRLGFF | 0.325 ± 0.015 | 0.2226 ± 0.0011 | 0.338 ± 0.014 | 0.218 ± 0.027 | 0.374 ± 0.02 | 0.182 ± 0.0026 | 0.215 ± 0.012 | 0.3396 ± 0.0013
32 | VTVWLISRVTGL | 0.435 ± 0.0085 | 0.579 ± 0.034 | 0.67938 ± 0.00055 | 0.496 ± 0.017 | 0.647 ± 0.017 | 0.286 ± 0.035 | 0.314 ± 0.01 | 0.549 ± 0.018
33 | FFLLCFMMCVLL | 0.259 ± 0.053 | 0.291 ± 0.015 | 0.291 ± 0.014 | 0.289 ± 0.043 | 0.374 ± 0.025 | 0.288 ± 0.01 | 0.219 ± 0.032 | 0.348 ± 0.01
34 | CFGVVVLGLSLD | 0.491 ± 0.024 | 0.442 ± 0.0052 | 0.503 ± 0.031 | 0.352 ± 0.039 | 0.564 ± 0.015 | 0.319 ± 0.0043 | 0.354 ± 0.027 | 0.531 ± 0.021
35 | LLFVVGTGRWVG | 0.302 ± 0.046 | 0.665 ± 0.022 | 0.736 ± 0.011 | 0.629 ± 0.029 | 0.744 ± 0.024 | 0.159 ± 0.0042 | 0.183 ± 0.033 | 0.482 ± 0.035
36 | FRWLAFALLFGC | 0.245 ± 0.0079 | 0.416 ± 0.011 | 0.477 ± 0.027 | 0.38 ± 0.012 | 0.495 ± 0.025 | 0.1758 ± 0.00032 | 0.166 ± 0.018 | 0.348 ± 0.0068
37 | LGHSLVRFVYCF | 0.451 ± 0.0073 | 0.46 ± 0.023 | 0.498 ± 0.024 | 0.411 ± 0.025 | 0.538 ± 0.011 | 0.349 ± 0.0072 | 0.357 ± 0.029 | 0.468 ± 0.016
38 | KTLCFLCRTRNS | 0.52 ± 0.033 | 0.671 ± 0.025 | 0.73 ± 0.011 | 0.668 ± 0.027 | 0.76 ± 0.013 | 0.387 ± 0.014 | 0.433 ± 0.023 | 0.658 ± 0.017
39 | LVSLLYFIVSLF | 0.311 ± 0.007 | 0.516 ± 0.013 | 0.579 ± 0.033 | 0.473 ± 0.0089 | 0.566 ± 0.031 | 0.241 ± 0.018 | 0.254 ± 0.011 | 0.323 ± 0.014
